Experimental data: patent publication US20130011378A1, “Stable formulations of a hyaluronan-degrading enzyme” (priority 2011, published 2013)

Assay: RP-HPLC: insulin apparent solubility / percent recovery
Conditions: 7 days at 2-8° C.
Method: Apparent solubility was measured as the percent insulin recovery as compared to the initial formulations/conditions.
Samples were prepared by withdrawing 100 μL from each vial at every time point and centrifuging prior to loading. Samples were stored in an autosampler at 4° C. prior to use, and were considered stable for 3 days after preparation. All samples were tested in duplicate.
For insulin, 20 μL was injected for each HPLC run.
To determine the apparent solubility, the peak area of insulin/insulin analog main peak and desamido peak were integrated and combined together to calculate the percentage relative to the standards. […] The data were processed using Design-Expert® 7.0 (StatEase) and the “historical data” feature. Insulin percent purity was expressed as the percent of main insulin versus all insulin species.

What does the source list for “regular insulin: mature human insulin, SEQ ID NOS: 103 and 104”?
Solubility of regular Insulin, % remaining of the original concentration (0.2% methylparaben + […] m-cresol, pH 6.6, NaCl 50 mM): 15.3%; Solubility of regular Insulin, % remaining of the original concentration (0.2% methylparaben + […] m-cresol, pH 6.6, NaCl 80 mM): 9.0%; Solubility of regular Insulin, % remaining of the original concentration (0.2% methylparaben + […] m-cresol, pH 6.6, NaCl 140 mM): 5.8%; Solubility of regular Insulin, % remaining of the original concentration (0.2% methylparaben + […] m-cresol, pH 6.8, NaCl 50 mM): 34.1%; Solubility of regular Insulin, % remaining of the original concentration (0.2% methylparaben + […] m-cresol, pH 6.8, NaCl 110 mM): 11.4%; Solubility of regular Insulin, % remaining of the original concentration (0.2% methylparaben + […] m-cresol, pH 7.0, NaCl 50 mM): 86.9%; Solubility of regular Insulin, % remaining of the original concentration (0.2% methylparaben + […] m-cresol, pH 7.0, NaCl 80 mM): 46.6%; Solubility of regular Insulin, % remaining of the original concentration (0.2% methylparaben + […] m-cresol, pH 7.0, NaCl 140 mM): 15.9%; Solubility of regular Insulin, % remaining of the original concentration (0.2% methylparaben + […] m-cresol, pH 7.2, NaCl 80 mM): 90.6%; Solubility of regular Insulin, % remaining of the original concentration (0.2% methylparaben + […] m-cresol, pH 7.2, NaCl 110 mM): 47.1%; Solubility of regular Insulin, % remaining of the original concentration (0.2% methylparaben + […] m-cresol, pH 7.2, NaCl 140 mM): 32.9%; Solubility of regular Insulin, % remaining of the original concentration (0.2% methylparaben + […] m-cresol, pH 7.4, NaCl 50 mM): 98.1%; Solubility of regular Insulin, % remaining of the original concentration (0.2% methylparaben + […] m-cresol, pH 7.4, NaCl 80 mM): 97.7%; Solubility of regular Insulin, % remaining of the original concentration (0.2% methylparaben + […] m-cresol, pH 7.4, NaCl 110 mM): 94.6%; Solubility of regular Insulin, % remaining of the original concentration (0.2% methylparaben + […] m-cresol, pH 7.4, NaCl 140 mM): 59.1%; Solubility of regular Insulin, % remaining of the original concentration (0.2% methylparaben + […] m-cresol, pH 7.6, NaCl 50 mM): 98.1%; Solubility of regular Insulin, % remaining of the original concentration (0.2% methylparaben + […] m-cresol, pH 7.6, NaCl 80 mM): 97.9%; Solubility of regular Insulin, % remaining of the original concentration (0.2% methylparaben + […] m-cresol, pH 7.6, NaCl 140 mM): 95.4%; Solubility of regular Insulin, % remaining of the original concentration (0.2% phenol + […] m-cresol, pH 6.6, NaCl 50 mM): 26.8%; Solubility of regular Insulin, % remaining of the original concentration (0.2% phenol + […] m-cresol, pH 6.6, NaCl 80 mM): 8.7%; Solubility of regular Insulin, % remaining of the original concentration (0.2% phenol + […] m-cresol, pH 6.6, NaCl 110 mM): 6.5%; Solubility of regular Insulin, % remaining of the original concentration (0.2% phenol + […] m-cresol, pH 6.6, NaCl 140 mM): 5.8%; Solubility of regular Insulin, % remaining of the original concentration (0.2% phenol + […] m-cresol, pH 6.8, NaCl 50 mM): 38.4%; Solubility of regular Insulin, % remaining of the original concentration (0.2% phenol + […] m-cresol, pH 6.8, NaCl 80 mM): 17.1%; Solubility of regular Insulin, % remaining of the original concentration (0.2% phenol + […] m-cresol, pH 6.8, NaCl 140 mM): 6.5%; Solubility of regular Insulin, % remaining of the original concentration (0.2% phenol + […] m-cresol, pH 7.0, NaCl 50 mM): 100.3%; Solubility of regular Insulin, % remaining of the original concentration (0.2% phenol + […] m-cresol, pH 7.0, NaCl 80 mM): 35.7%; Solubility of regular Insulin, % remaining of the original concentration (0.2% phenol + […] m-cresol, pH 7.0, NaCl 110 mM): 17.7%; Solubility of regular Insulin, % remaining of the original concentration (0.2% phenol + […] m-cresol, pH 7.0, NaCl 140 mM): 11.6%; Solubility of regular Insulin, % remaining of the original concentration (0.2% phenol + […] m-cresol, pH 7.2, NaCl 80 mM): 92.2%; Solubility of regular Insulin, % remaining of the original concentration (0.2% phenol + […] m-cresol, pH 7.2, NaCl 110 mM): 37.4%; Solubility of regular Insulin, % remaining of the original concentration (0.2% phenol + […] m-cresol, pH 7.2, NaCl 140 mM): 18.9%; Solubility of regular Insulin, % remaining of the original concentration (0.2% phenol + […] m-cresol, pH 7.4, NaCl 80 mM): 99.2%; Solubility of regular Insulin, % remaining of the original concentration (0.2% phenol + […] m-cresol, pH 7.4, NaCl 110 mM): 87.8%; Solubility of regular Insulin, % remaining of the original concentration (0.2% phenol + […] m-cresol, pH 7.4, NaCl 140 mM): 40.6%; Solubility of regular Insulin, % remaining of the original concentration (0.2% phenol + […] m-cresol, pH 7.6, NaCl 80 mM): 99.2%; Solubility of regular Insulin, % remaining of the original concentration (0.2% phenol + […] m-cresol, pH 7.6, NaCl 110 mM): 98.5%; Solubility of regular Insulin, % remaining of the original concentration (0.2% phenol + […] m-cresol, pH 7.6, NaCl 140 mM): 82.2%; Solubility of regular Insulin, % remaining of the original concentration ([…] phenol + […] m-cresol, pH 6.6, NaCl 50 mM): 31.2%; Solubility of regular Insulin, % remaining of the original concentration ([…] phenol + […] m-cresol, pH 6.6, NaCl 80 mM): 18.6%; Solubility of regular Insulin, % remaining of the original concentration ([…] phenol + […] m-cresol, pH 6.6, NaCl 140 mM): 12.9%; Solubility of regular Insulin, % remaining of the original concentration ([…] phenol + […] m-cresol, pH 6.8, NaCl 50 mM): 66.6%; Solubility of regular Insulin, % remaining of the original concentration ([…] phenol + […] m-cresol, pH 6.8, NaCl 80 mM): 24.9%; Solubility of regular Insulin, % remaining of the original concentration ([…] phenol + […] m-cresol, pH 7.0, NaCl 50 mM): 96.7%; Solubility of regular Insulin, % remaining of the original concentration ([…] phenol + […] m-cresol, pH 7.0, NaCl 80 mM): 80.8%; Solubility of regular Insulin, % remaining of the original concentration ([…] phenol + […] m-cresol, pH 7.0, NaCl 110 mM): 32.9%; Solubility of regular Insulin, % remaining of the original concentration ([…] phenol + […] m-cresol, pH 7.0, NaCl 140 mM): 17.1%; Solubility of regular Insulin, % remaining of the original concentration ([…] phenol + […] m-cresol, pH 7.2, NaCl 80 mM): 96.4%; Solubility of regular Insulin, % remaining of the original concentration ([…] phenol + […] m-cresol, pH 7.2, NaCl 110 mM): 58.7%; Solubility of regular Insulin, % remaining of the original concentration ([…] phenol + […] m-cresol, pH 7.2, NaCl 140 mM): 33.1%; Solubility of regular Insulin, % remaining of the original concentration ([…] phenol + […] m-cresol, pH 7.4, NaCl 50 mM): 96.7%; Solubility of regular Insulin, % remaining of the original concentration ([…] phenol + […] m-cresol, pH 7.4, NaCl 80 mM): 97.3%; Solubility of regular Insulin, % remaining of the original concentration ([…] phenol + […] m-cresol, pH 7.4, NaCl 110 mM): 94.2%; Solubility of regular Insulin, % remaining of the original concentration ([…] phenol + […] m-cresol, pH 7.4, NaCl 140 mM): 57.9%; Solubility of regular Insulin, % remaining of the original concentration ([…] phenol + […] m-cresol, pH 7.6, NaCl 50 mM): 97.2%; Solubility of regular Insulin, % remaining of the original concentration ([…] phenol + […] m-cresol, pH 7.6, NaCl 80 mM): 97.1%; Solubility of regular Insulin, % remaining of the original concentration ([…] phenol + […] m-cresol, pH 7.6, NaCl 110 mM): 97.1%; Solubility of regular Insulin, % remaining of the original concentration ([…] phenol + […] m-cresol, pH 7.6, NaCl 140 mM): 91.7%
